These results are taken from patent publication US20080274950A1 (BABRAHAM INSTITUTE, published 2008).

Substitutions are numbered along the chain they refer to. Names and notes keep the numbering of the source.

Series [1] concerns the target T1, full length chicken N-cadherin with the mutation E89A expressed on K562 cells (chicken, UniProt P10288 165-912, E89A).
T1 construct: whole, on cells; also called cells expressing the E89A mutation; K562 E89A
T1 sequence (looked up): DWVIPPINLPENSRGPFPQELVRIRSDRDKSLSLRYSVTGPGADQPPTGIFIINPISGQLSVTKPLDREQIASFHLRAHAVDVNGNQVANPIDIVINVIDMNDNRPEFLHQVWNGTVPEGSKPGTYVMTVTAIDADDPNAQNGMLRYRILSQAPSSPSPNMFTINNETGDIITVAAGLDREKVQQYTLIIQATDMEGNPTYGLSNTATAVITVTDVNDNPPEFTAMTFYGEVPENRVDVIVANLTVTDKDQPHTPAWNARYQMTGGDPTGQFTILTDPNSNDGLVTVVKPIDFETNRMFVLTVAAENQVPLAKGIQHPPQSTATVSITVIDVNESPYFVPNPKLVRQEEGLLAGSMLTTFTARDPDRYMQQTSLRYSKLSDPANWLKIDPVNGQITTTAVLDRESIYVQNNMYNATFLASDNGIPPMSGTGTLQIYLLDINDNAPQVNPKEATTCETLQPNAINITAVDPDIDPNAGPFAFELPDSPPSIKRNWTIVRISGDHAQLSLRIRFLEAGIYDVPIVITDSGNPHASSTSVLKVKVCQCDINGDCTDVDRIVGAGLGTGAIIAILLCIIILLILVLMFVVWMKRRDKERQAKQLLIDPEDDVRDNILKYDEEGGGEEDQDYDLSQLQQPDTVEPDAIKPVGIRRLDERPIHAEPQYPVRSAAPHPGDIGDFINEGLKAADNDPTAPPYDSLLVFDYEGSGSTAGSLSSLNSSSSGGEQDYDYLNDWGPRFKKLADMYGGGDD
Description: adhesion of K562 transfectants to N-cadherin Fc coated at 1 µg/ml; reversed by chelation of calcium. As for the experimental part: (§1) Adhesion tests were conducted substantially as described in Example 1. Briefly, K562 Cells or L cells transfected with wild type or mutant N-cadherin were allowed to settle for 45 minutes at 37° C. onto N-cadherin Fc fusion proteins coated at 1 μg/ml to a 96 well plate. Non-adherent cells were then washed off and residual adherent cells were quantitated by measuring acid phosphatase activity. Assays were conducted in quadruplicate and results are expressed as % cells adhering +/−SEM.

Series [2] concerns the target T2, full length chicken N-cadherin with the N-terminus extended by two glycine residues (GG) expressed on K562 … (chicken, UniProt P10288 165-912).
T2 construct: whole, on cells; also called cells expressing the GG N-terminal extension mutant; K562 GG
T2 sequence: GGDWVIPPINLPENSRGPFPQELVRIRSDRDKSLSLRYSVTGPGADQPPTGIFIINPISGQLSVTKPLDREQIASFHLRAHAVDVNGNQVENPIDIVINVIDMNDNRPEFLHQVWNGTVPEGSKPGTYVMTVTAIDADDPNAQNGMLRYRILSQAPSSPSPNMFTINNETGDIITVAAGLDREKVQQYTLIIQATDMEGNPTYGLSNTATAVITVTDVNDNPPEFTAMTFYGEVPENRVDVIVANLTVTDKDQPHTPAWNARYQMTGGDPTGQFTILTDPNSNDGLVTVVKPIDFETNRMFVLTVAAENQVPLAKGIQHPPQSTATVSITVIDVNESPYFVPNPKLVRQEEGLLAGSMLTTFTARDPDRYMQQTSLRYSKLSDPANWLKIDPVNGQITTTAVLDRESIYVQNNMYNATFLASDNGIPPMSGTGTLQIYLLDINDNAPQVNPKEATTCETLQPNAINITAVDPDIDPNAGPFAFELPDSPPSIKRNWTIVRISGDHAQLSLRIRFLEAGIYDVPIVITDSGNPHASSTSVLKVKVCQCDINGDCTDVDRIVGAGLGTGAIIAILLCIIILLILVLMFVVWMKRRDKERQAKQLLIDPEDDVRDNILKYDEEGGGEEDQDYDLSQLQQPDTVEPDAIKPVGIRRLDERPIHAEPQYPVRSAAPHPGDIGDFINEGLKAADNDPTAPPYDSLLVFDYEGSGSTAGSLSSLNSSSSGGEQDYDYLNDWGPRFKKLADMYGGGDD
Description: adhesion of K562 transfectants to coated N-cadherin Fc. As for the experimental part:
as §1

Series [3] addresses T3, human N-cadherin naturally expressed on DX3 melanoma cells (human, UniProt P19022 160-906).
T3 construct: also called DX3 Cells; N-cadherin+ve DX3 melanoma cells
T3 sequence: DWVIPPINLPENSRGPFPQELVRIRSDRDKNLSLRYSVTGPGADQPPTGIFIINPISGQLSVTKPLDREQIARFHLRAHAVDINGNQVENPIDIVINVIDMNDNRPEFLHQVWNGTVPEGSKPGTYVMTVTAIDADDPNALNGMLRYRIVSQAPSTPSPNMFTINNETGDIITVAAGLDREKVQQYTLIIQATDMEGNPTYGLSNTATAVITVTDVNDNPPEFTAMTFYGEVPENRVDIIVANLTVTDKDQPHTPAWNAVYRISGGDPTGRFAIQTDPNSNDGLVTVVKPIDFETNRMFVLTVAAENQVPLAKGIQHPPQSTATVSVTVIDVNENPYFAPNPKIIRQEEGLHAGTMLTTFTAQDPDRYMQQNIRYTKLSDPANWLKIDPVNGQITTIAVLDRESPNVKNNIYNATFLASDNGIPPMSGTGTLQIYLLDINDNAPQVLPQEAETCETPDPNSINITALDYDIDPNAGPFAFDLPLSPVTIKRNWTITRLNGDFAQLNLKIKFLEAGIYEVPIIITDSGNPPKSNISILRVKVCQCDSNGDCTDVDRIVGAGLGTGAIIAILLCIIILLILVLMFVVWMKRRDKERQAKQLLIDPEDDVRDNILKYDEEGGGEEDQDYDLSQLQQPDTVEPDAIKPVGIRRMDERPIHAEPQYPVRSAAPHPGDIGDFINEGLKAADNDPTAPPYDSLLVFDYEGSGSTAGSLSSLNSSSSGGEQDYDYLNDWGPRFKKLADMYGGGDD
In words: adhesion of DX3 cells to coated monomeric N-cadherin-Fc, oxidising buffer. The method, then: Monomeric or dimeric N-cadherin-Fc fusion protein in Cos cell supernatants was added as described for the ELISA assay. DX3 Cells, a human melanoma cell line which expresses N-cadherin, were dissociated with Cell Dissociation Solution (Sigma, code C5789), resuspended in HBSS with 2% FCS and assessed for adhesion to wild type or mutant N-cadherin-Fc as previously described (Corps et al., 2001). Microscopic examination established that the cells were present as a single cell suspension as they settled onto the plate. For assays conducted in reducing conditions, 10 mM DTT was present during the adhesion and washing steps. Determinations were conducted in triplicate and results are presented as mean +/−sem.

Series [4] deals with the molecule itself. Description: disulphide-bonded cis-dimers in the coating layer; non-reducing SDS-PAGE and immunoblot. The method, then:
Monomeric N-cadherin-Fc (1 μg/ml) bearing the three alternative cysteine point mutations, D1C, R25C or D27C, was immobilised on 96-well plates with goat antihuman IgG Fe as previously described for E-cadherin-Fc (Corps et al., 2001). Unbound cadherin was removed by washing with HBSS, 0.1% BSA, followed by HBSS alone. The plates were not blocked with additional protein. K562 transfectants expressing N-cadherin bearing complementary or non-complementary point mutations (6×10^4 Cells in 100 μl HBSS containing 10 mM DTT), in single cell suspension, were added to the coated wells which contained 100 μl HBSS. The final concentration of DTT was therefore 5 mM DTT during the adhesion stage. The cells were allowed to settle for 10 min at room temperature before incubation at 37° C. for 30 minutes to complete adhesion. […] Adherent cells from a pool of 4 wells for each experimental condition were then solubilised in sample buffer for SDS-PAGE and analysed on NuPAGE Novex gradient gels, 3-8% or 4-12%, (Invitrogen), under nonreducing or reducing conditions. Cellular cadherin was detected by immunoblotting using rabbit pan anti-cadherin antiserum specific for the cytoplasmic domain. Alternatively, N-cadherin-Fc fusion protein was detected with rabbit anti-human IgG, Fc-specific (Pierce, code 31142). […]

The target in series [5] is T2, full length chicken N-cadherin with the …. In words: adhesion of K562 transfectants to N-cadherin Fc coated at 1 µg/ml. The method, then:
as §1

Series [6] deals with T1, full length chicken N-cadherin with the …. Description: adhesion of K562 transfectants to coated N-cadherin Fc. The method, then: as §1

B1: chicken N-cadherin Fc fusion protein with the N-terminus extended by two glycine residues (GG) (Fc fusion)
chain: GGDWVIPPINLPENSRGPFPQELVRIRSDRDKSLSLRYSVTGPGADQPPTGIFIINPISGQLSVTKPLDREQIASFHLRAHAVDVNGNQVENPIDIVINVIDMNDNRPEFLHQVWNGTVPEGSKPGTYVMTVTAIDADDPNAQNGMLRYRILSQAPSSPSPNMFTINNETGDIITVAAGLDREKVQQYTLIIQATDMEGNPTYGLSNTATAVITVTDVNDNPPEFTAMTFYGEVPENRVDVIVANLTVTDKDQPHTPAWNARYQMTGGDPTGQFTILTDPNSNDGLVTVVKPIDFETNRMFVLTVAAENQVPLAKGIQHPPQSTATVSITVIDVNESPYFVPNPKLVRQEEGLLAGSMLTTFTARDPDRYMQQTSLRYSKLSDPANWLKIDPVNGQITTTAVLDRESIYVQNNMYNATFLASDNGIPPMSGTGTLQIYLLDINDNAPQVNPKEATTCETLQPNAINITAVDPDIDPNAGPFAFELPDSPPSIKRNWTIVRISGDHAQLSLRIRFLEAGIYDVPIVITDSGNPHASSTSVLKVKVCQCDINGDCTDVDRIVGAGLGTG
notes: extracellular domain; also called GG extension mutant; GG mutant; not shown: hinge region, CH2 and CH3 domains of human IgG1 heavy chain (vector pIgSig)
Consider B1, for which the binding result is on record as “binds” in series [1] and “no binding (tested: Fc fusion protein coated at 1 µg/ml)” in series [2].

B2: monomeric chicken N-cadherin-Fc with the mutation D1C (Fc fusion, UniProt P10288 165-728, looked up)
chain: CWVIPPINLPENSRGPFPQELVRIRSDRDKSLSLRYSVTGPGADQPPTGIFIINPISGQLSVTKPLDREQIASFHLRAHAVDVNGNQVENPIDIVINVIDMNDNRPEFLHQVWNGTVPEGSKPGTYVMTVTAIDADDPNAQNGMLRYRILSQAPSSPSPNMFTINNETGDIITVAAGLDREKVQQYTLIIQATDMEGNPTYGLSNTATAVITVTDVNDNPPEFTAMTFYGEVPENRVDVIVANLTVTDKDQPHTPAWNARYQMTGGDPTGQFTILTDPNSNDGLVTVVKPIDFETNRMFVLTVAAENQVPLAKGIQHPPQSTATVSITVIDVNESPYFVPNPKLVRQEEGLLAGSMLTTFTARDPDRYMQQTSLRYSKLSDPANWLKIDPVNGQITTTAVLDRESIYVQNNMYNATFLASDNGIPPMSGTGTLQIYLLDINDNAPQVNPKEATTCETLQPNAINITAVDPDIDPNAGPFAFELPDSPPSIKRNWTIVRISGDHAQLSLRIRFLEAGIYDVPIVITDSGNPHASSTSVLKVKVCQCDINGDCTDVDRIVGAGLGT
notes: extracellular domain; not shown: hinge region, CH2 and CH3 domains of human IgG1 heavy chain (vector pIgSig)
Consider B2, for which the binding result in series [3] and in series [4] was “binds” throughout.

B3: chicken N-cadherin Fc fusion protein with the mutation E89A (Fc fusion, UniProt P10288 165-728, looked up)
chain: B2 chain with C1D, E89A
notes: extracellular domain; also called E89A mutant; E89A Fc fusion protein; not shown: hinge region, CH2 and CH3 domains of human IgG1 heavy chain (vector pIgSig)
For B3, the figures for the binding result in series [5] and in series [6] were “binds” and “no binding (tested: Fc fusion protein coated at 1 µg/ml)”, respectively.
